According to the Immune Epitope Database (IEDB):

How the values were obtained:
[1] = target: HLA-A*24:02; assay: IEDB peptide-MHC binding, purified MHC/competitive/fluorescence; ≥ and ≤ were set here for values at or beyond the usual limits of such assays
[2] = target: HLA-A*11:01; assay: as above
[3] = target: HLA-B*44:02; assay: IEDB peptide-MHC binding, purified MHC/competitive/radioactivity; filed as Kd, often an IC50 or EC50 that approximates it; ≥ and ≤ were set here for values at or beyond the usual limits of such assays
[4] = target: HLA-B*18:01; assay: as above
[5] = target: HLA-B*40:01; assay: as above
[6] = target: HLA-B*44:03; assay: as above
[7] = target: HLA-B*40:02; assay: as above
[8] = target: HLA-B*45:01; assay: as above
[9] = target: HLA-B*48:01; assay: IEDB peptide-MHC binding, purified MHC/direct/fluorescence; filed as Kd, often an IC50 or EC50 that approximates it; ≥ and ≤ were set here for values at or beyond the usual limits of such assays; conditions: source organism: Dengue virus
[10] = target: HLA-B*58:01; assay: IEDB peptide-MHC binding, purified MHC/competitive/radioactivity; filed as Kd, often an IC50 or EC50 that approximates it; ≥ and ≤ were set here for values at or beyond the usual limits of such assays
[11] = target: HLA-A*01:01; assay: as above; conditions: source organism: Dengue virus 2 Jamaica/1409/1983
[12] = target: HLA-A*30:02; assay: as above; conditions: source organism: Dengue virus 2 Jamaica/1409/1983
[13] = target: HLA-A*02:03; assay: as above
[14] = target: HLA-A*02:01; assay: as above
[15] = target: HLA-A*02:17; assay: as above
[16] = target: HLA-A*32:01; assay: as above; conditions: source organism: Dengue virus 3 Martinique/1243/1999
[17] = target: HLA-A*02:01; assay: IEDB peptide-MHC binding, purified MHC/competitive/fluorescence; ≥ and ≤ were set here for values at or beyond the usual limits of such assays; conditions: source organism: Zaire ebolavirus
[18] = target: HLA-A*02:12; assay: IEDB peptide-MHC binding, purified MHC/direct/fluorescence; filed as Kd, often an IC50 or EC50 that approximates it; ≥ and ≤ were set here for values at or beyond the usual limits of such assays; conditions: source organism: Hantaanvirus CGRn93P8
[19] = target: HLA-A*02:11; assay: as above; conditions: source organism: Hantaanvirus CGRn93P8
[20] = target: HLA-A*02:01; assay: as above; conditions: source organism: Orthohantavirus hantanense
[21] = target: HLA-A*02:19; assay: as above; conditions: source organism: Hantaanvirus CGRn93P8
[22] = target: HLA-B*57:01; assay: as above; conditions: source organism: Vibrio parahaemolyticus
[23] = target: HLA-B*58:01; assay: as above; conditions: source organism: Vibrio parahaemolyticus
[24] = target: HLA-B*15:17; assay: as above; conditions: source organism: Vibrio parahaemolyticus
[25] = target: HLA-B*57:01; assay: IEDB peptide-MHC binding, purified MHC/competitive/radioactivity; filed as Kd, often an IC50 or EC50 that approximates it; ≥ and ≤ were set here for values at or beyond the usual limits of such assays; conditions: source organism: Dengue virus 2 Jamaica/1409/1983
[26] = source organism: Vaccinia virus
[27] = source organism: SARS coronavirus Tor2
[28] = source organism: Mammarenavirus lassaense
[29] = source organism: Dengue virus 2 Jamaica/1409/1983
[30] = source organism: Mammarenavirus machupoense
[31] = source organism: Zaire ebolavirus
[32] = source organism: Dengue virus 1 Brazil/97-11/1997
[33] = source organism: Dengue virus 1 Singapore/S275/1990
[34] = source organism: Dengue virus 4 Philippines/H241/1956
[35] = source organism: Dengue virus 3 Martinique/1243/1999
[36] = source organism: Dengue virus 2 Thailand/NGS-C/1944
[37] = source organism: Dengue virus 3 Singapore/8120/1995

PYEGGKVFA
IC50 [1, 26]: 13900 nM
IC50 [2, 26]: ≥ 118000 nM

QEIQLLAAV
Kd [3, 27]: 93.3 nM
Kd [4, 27]: 143 nM
Kd [5, 27]: 26.5 nM
Kd [6, 27]: 48.5 nM
Kd [7, 27]: 19300 nM
Kd [8, 27]: 8.72 nM

REAYCQEFSL
Kd [3, 28]: 1060 nM
Kd [4, 28]: 11300 nM
Kd [5, 28]: 9780 nM
Kd [6, 28]: 2790 nM
Kd [7, 28]: 1.34 nM
Kd [8, 28]: 1540 nM

REPAGLGSM
Kd [3, 28]: ≥ 33500 nM
Kd [4, 28]: 8150 nM
Kd [5, 28]: 7910 nM
Kd [6, 28]: ≥ 78100 nM
Kd [7, 28]: 85.9 nM
Kd [8, 28]: ≥ 77700 nM

RRDKRSVAL
Kd [9]: 153 nM

RSLIGNEEY
Kd [10, 29]: 27.2 nM
Kd [11]: 6720 nM
Kd [12]: ≥ 30100 nM

RSVALVPHV
Kd [10, 29]: 8.81 nM

SDHLISEML
Kd [3, 30]: 12200 nM
Kd [4, 30]: ≥ 77500 nM
Kd [5, 30]: ≥ 22400 nM
Kd [6, 30]: ≥ 31700 nM
Kd [7, 30]: 217 nM
Kd [8, 30]: 17200 nM

SIPLGVIHN
IC50 [2, 31]: ≥ 158000 nM

SLSMTCIAV
Kd [13, 32]: 124 nM
Kd [14, 33]: 13.4 nM
Kd [15, 33]: 49.1 nM

SMAMTCIAV
Kd [13, 34]: 4.07 nM
Kd [14, 34]: 11.9 nM
Kd [15, 34]: 74 nM

SMINGVVKL
Kd [13, 35]: 18.4 nM
Kd [16]: 1490 nM
Kd ([15]; source organism: Dengue virus 3 China/80-2/1980): 425 nM

SSGYYSTTI
IC50 [1, 31]: 2140 nM
IC50 [17]: 65200 nM
IC50 [2, 31]: 33800 nM

TELEPPCRF
Kd [3, 27]: 99 nM
Kd [4, 27]: 892 nM
Kd [5, 27]: ≥ 28500 nM
Kd [6, 27]: 62.9 nM
Kd [7, 27]: 14000 nM
Kd [8, 27]: 12100 nM

TLAQSLIDV
Kd [18]: 4 nM
Kd [19]: 2 nM
Kd [20]: ≤ 1 nM
Kd [21]: 6 nM

TLMAMDLGEL
Kd ([13]; source organism: Dengue virus 2 Peru/IQT2913/1996): 8.36 nM
Kd [14, 36]: 14.5 nM
Kd [15, 36]: 273 nM

TLTAAVLLLV
Kd [13, 37]: 5.74 nM
Kd [15, 37]: 219 nM

TVIPFYFVW
Kd [22]: 275 nM
Kd [23]: 41.3 nM
Kd [24]: 6.8 nM

VASEMAEALK
Kd [10, 32]: ≥ 10000 nM

VGVVVSTNR
IC50 [2, 26]: 21500 nM

VIASSGMLW
Kd [10, 35]: 56 nM

VTRLENLMW
Kd [25]: 3.79 nM

WMSSEGAWKH
Kd [10, 29]: 215 nM

YDQMKCKSL
Kd [3, 28]: ≥ 76200 nM
Kd [4, 28]: ≥ 77500 nM
Kd [5, 28]: ≥ 76100 nM
Kd [6, 28]: ≥ 78100 nM
Kd [7, 28]: 3200 nM
Kd [8, 28]: ≥ 59400 nM
